No end group written: not given here. TMR = tetramethyl rhodamine dye
Tests used:
Assay in all cases: fluorescence polarisation; 37 °C, after the 25 °C reading ramped over 7 min to 37 °C and 2 min incubation; unlabeled Rb^P against 1.5 nM TMR-E2F1^TD or 7.5 nM TMR-E7^LxCxE; 25 mM Tris pH 8.0, 200 mM NaCl, 1 mM DTT, 0.1% Tween-20; apparent Kd
Settings in all cases: both partners purified
[1] = molecular target: T1, Rb^P A488V (human, UniProt P06400 380-788, A488V)
T1 construct: also called variant 14
T1 sequence (looked up): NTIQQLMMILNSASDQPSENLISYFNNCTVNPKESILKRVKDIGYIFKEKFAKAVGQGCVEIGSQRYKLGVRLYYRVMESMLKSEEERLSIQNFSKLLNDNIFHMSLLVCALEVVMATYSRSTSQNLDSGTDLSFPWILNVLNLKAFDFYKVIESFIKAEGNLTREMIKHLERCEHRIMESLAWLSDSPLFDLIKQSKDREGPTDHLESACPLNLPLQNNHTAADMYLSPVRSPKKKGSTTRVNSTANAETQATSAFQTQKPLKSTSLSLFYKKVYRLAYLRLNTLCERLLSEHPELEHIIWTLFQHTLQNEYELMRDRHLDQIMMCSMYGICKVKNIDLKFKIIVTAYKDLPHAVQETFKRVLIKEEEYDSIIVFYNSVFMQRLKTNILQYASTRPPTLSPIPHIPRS

[2] = molecular target: T2, Rb^P S443L (human, UniProt P06400 380-788, S443L)
T2 construct: also called variant 2
T2 sequence (looked up): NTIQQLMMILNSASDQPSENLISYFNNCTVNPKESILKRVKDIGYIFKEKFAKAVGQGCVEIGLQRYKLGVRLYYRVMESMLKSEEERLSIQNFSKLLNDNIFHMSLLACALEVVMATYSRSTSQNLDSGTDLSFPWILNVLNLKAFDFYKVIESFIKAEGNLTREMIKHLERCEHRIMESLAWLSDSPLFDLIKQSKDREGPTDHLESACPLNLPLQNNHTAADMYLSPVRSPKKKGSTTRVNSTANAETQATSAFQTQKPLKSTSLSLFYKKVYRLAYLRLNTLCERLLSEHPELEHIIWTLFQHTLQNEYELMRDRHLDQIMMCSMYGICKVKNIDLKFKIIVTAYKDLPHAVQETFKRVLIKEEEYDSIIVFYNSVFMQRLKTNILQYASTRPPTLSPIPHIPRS

[3] = molecular target: T3, Rb^P Q444L (human, UniProt P06400 380-788, Q444L)
T3 construct: also called variant 3
T3 sequence (looked up): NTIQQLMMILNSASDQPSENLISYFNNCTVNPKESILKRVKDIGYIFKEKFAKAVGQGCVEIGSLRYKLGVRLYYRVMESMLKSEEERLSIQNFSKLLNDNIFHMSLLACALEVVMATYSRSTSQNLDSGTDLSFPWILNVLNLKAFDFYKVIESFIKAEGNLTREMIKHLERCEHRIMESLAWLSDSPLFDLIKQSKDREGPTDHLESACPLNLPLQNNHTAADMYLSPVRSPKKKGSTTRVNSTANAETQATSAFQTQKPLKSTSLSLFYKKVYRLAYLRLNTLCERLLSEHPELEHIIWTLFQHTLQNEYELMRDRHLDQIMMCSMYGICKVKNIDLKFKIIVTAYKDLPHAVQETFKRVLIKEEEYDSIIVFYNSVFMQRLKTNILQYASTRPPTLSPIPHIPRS

[4] = molecular target: T4, Rb^P E675Q (human, UniProt P06400 380-788, E675Q)
T4 construct: also called variant 56
T4 sequence (looked up): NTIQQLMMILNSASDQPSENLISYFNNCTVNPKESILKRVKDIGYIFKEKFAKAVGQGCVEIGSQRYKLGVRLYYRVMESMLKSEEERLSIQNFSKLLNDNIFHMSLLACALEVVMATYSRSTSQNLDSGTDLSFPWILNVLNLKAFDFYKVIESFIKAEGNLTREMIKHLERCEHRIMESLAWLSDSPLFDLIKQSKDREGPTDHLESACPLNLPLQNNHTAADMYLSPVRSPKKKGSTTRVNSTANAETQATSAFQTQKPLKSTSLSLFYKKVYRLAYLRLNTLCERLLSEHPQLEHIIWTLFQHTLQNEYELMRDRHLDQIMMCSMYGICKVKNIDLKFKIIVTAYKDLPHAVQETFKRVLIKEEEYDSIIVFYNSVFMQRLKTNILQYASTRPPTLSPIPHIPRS

[5] = molecular target: T5, Rb^P R763T (human, UniProt P06400 380-788, R763T)
T5 construct: also called variant 75
T5 sequence (looked up): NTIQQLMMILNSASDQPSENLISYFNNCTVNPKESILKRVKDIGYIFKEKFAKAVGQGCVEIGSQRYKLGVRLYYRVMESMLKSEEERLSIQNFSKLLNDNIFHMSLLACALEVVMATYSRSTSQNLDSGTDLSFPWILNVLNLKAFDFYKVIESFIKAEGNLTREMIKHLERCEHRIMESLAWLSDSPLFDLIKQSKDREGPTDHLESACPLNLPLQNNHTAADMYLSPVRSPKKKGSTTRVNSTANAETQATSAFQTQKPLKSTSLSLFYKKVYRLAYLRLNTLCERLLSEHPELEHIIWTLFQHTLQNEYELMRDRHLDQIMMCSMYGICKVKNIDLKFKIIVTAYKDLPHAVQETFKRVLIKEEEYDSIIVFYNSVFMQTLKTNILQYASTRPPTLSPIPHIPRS

| Binder | Kd [1] [nM] | Kd [2] [nM] | Kd [3] [nM] | Kd [4] [nM] | Kd [5] [nM] |
| --- | --- | --- | --- | --- | --- |
| {TMR}-GEGIRDLFDCDFGDLTPLD (also called E2F^TD; source: synthetic peptide, bought: GenScript) [TMR-E2F1^TD, peptide of the E2F1 transactivation domain] | 78 | 55 | 30 | 71 | 59 |
| DLYCYEQLN (also: TMR label, position not given here, source: synthetic peptide, bought: GenScript) [TMR-E7^LxCxE, LxCxE peptide of the E7 oncoprotein from HPV] | 19 | 21 | 11 | 46 | 35 |
